# From the DeepSol protein solubility set
# Test: soluble on expression in E. coli; label from the status in PepcDB or PDB records
row,Sequence,soluble on expression in E. coli
1,MGSDKIHHHHHHMRKPGDFLESGMTESVNEKADVMKVPVPNLALGMYVAAIDHQGRVNITNPGQIKDRQAIDKLVRNGIEYVWVDVERSAPECGLRPKQEPEKIIRLTRDQSQEKAKRLMSEAKDLVKKVLSETFEGKAVKVEPFEALADKMLESVMLDADAFKCISALRSKDAYLLEHSINVAFLLVTFGRYLKLKRSVLKQLAVGGILHDIGKVRVNNRILHKPGRLTPEEFEHMKLHQVYAQEILAETEDLSQISRDVCLMHHEKLDGKGYPNGLKGEEISLHGRMSCIVDIFDALTATRCYKEAMSPAAAFKILLSLTPFHLDEKLVYEFIRCVGIYPVGSLVQLSDGRIGIVWEAKDRDALHPVLKTFYSVKHKHYTEVTMVDLLKSDLFIERGVSPSSLDVDPTPFY,not soluble
2,GPGSMSVRIRFILTGACPPSYSGKQVQLNFPLEDENGAPTTTAHLKQLIRTQWPENMSEMKEVVEKTEMRVLKTGNLLSDDTQIRSVLTATELSECSINPSAEGSGRADEDQKSVLMHLVFQSNQSQGRQRDGSAGGGRRDNASHDSGCCTML,soluble
3,MIRLIFLDIDKTLIPGYEPDPAKPIIEELKDMGFEIIFNSSKTRAEQEYYRKELEVETPFISENGSAIFIPKGYFPFDVKGKEVGNYIVIELGIRVEKIREELKKLENIYGLKYYGNSTKEEIEKFTGMPPELVPLAMEREYSETIFEWSRDGWEEVLVEGGFKVTMGSRFYTVHGNSDKGKAAKILLDFYKRLGQIESYAVGDSYNDFPMFEVVDKVFIVGSLKHKKAQNVSSIIDVLEVIKHHHHHH,soluble
4,MGSSHHHHHHSSGLVPRGSHMASAVVQEVSAEAQAPAVVKNPPKLALKIDRADVNQLPRNFRMGSDKYVGVTKTGIMPTRKGMDTMNVSASSCFSEKELEAILKKVPVKPSQFYDVDLRGESHGYLNGTAVSWFANHDWGNDGRTEDIIIPLEKEQLASLKGSTVKSIYRFDDKKNVILSPVYVNYNKVRTEEEMVKQHGANYFRLTLQDHFRPDDPDVDKFLEFYKSLPKDAWLHYHCYAGMGRTTIFMVMHDILKNAKDVSFDDIIQRQKLIGIVDLSEIPDKKKNYGRKAYIERYQFVQHFYDYVKENPDLKTPYSVWAKKNKVNSWEPDYNGYIWRLDTKDRNQLPRNFRTMNSAFRTDVNVKKTGKGFTPTPTRKGLDTLYMSGSAEFSNGELQAMLPVLKQQAKGPIYIMDLRQETHGVFNGNAVSWYGLRDWGNLGKNKAEVLKDENSRLNAARGKSLIVAELDKDKMPIDPKPVKIESVMTEQQLVEKNGLHYYRIAATDHIWPSAANIDEFINFTRTMPANAWLHFHCQAGAGRTTAYMAMYDMMKNPDVSLGDILSRQYLLGGNYVAYEIAKPKPDQWKADYYHQKAHMIEKFYQYVQENHADGFKTSWSQWLAAHQDV,soluble
5,SLRYIRQLCCVSLLCLSGSAVAANVRLQVEGLSGQLEKNVRAQLSTIESDEVTPDRRFRARVDDAIREGLKALGYYQPTIEFDLRPPPKKGRQVLIAKVTPGVPVLIGGTDVVLRGGARTDKDYLKLLDTRPAIGTVLNQGDYENFKKSLTSIALRKGYFDSEFTKAQLGIALGLHKAFWDIDYNSGERYRFGHVTFEGSQIRDEYLQNLVPFKEGDEYESKDLAELNRRLSATGWFNSVVVAPQFDKARETKVLPLTGVVSPRTENTIETGVGYSTDVGPRVKATWKKPWMNSYGHSLTTSTSISAPEQTLDFSYKMPLLKNPLEQYYLVQGGFKRTDLNDTESDSTTLVASRYWDLSSGWQRAINLRWSLDHFTQGEITNTTMLFYPGVMISRTRSRGGLMPTWGDSQRYSIDYSNTAWGSDVDFSVFQAQNVWIRTLYDRHRFVTRGTLGWIETGDFDKVPPDLRFFAGGDRSIRGYKYKSIAPKYANGDLKGASKLITGSLEYQYNVTGKWWGAVFVDSGEAVSDIRRSDFKTGTGVGVRWESPVGPIKLDFAVPVADKDEHGLQFYIGLGPEL,soluble
6,MKNNADFAYQAVYRYLVQLVDQGQGESALKMPSLRHLAQRLRVSISTVQSAYSLLEKEGRIYSVAKSGYYSAPRSAAIEVRARFDSDGDLLQMHHYYARRSGMSLLSSDAPTLLQAQESPLLAMEHELVRNYPRPRQADFQPFGELQLRIALAARYTRGAEHCWHADNVHVAPDVHGAFKAVIETLGLRGGAVLVESPCAWGLLRLLRSFDIRVIELPLDETGSLDPIQLERLLLENNVGLVVLPSMFNSVRGSVRPLCNSRAVAKVLDRHQVWVLENDSHGALQFAADQTCLRHLIDPQRLIIIGTFEKCLGPEAPYGYLLCKNLDARWQAYFLLRAFELPPTRQRAIARLCSSGRLDKHLAQLREALAGHLQLMMQHLNEHTDGLLRYEVPEGGCGIWARSVYPVDMRQVFNRLLAKRIVITPGELFSLESLYGQHLWISYAIDWSRDPGELFSALAQALHLARQP,not soluble
7,MSLNREDRLVSAANSYLANNYECFLDDGVILTNNYSLLGTIKLGGIDFLTTSKKDLIELHASIYSVFRNFVTPEFKFYFHTVKKKIVIDETNRDYGLIFSNDFMRAYNEKQKRESFYDISFYLTIEQDLLDTLNEPVMNKKHFADNNFEEFQRIIRAKLENFKDRIELIEELLSKYHPTRLKEYTKDGIIYSKQCEFYNFLVGMNEAPFICNRKDLYLKEKMHGGVKEVYFANKHGKILNDDLSEKYFSAIEISEYAPKSQSDLFDKINALDSEFIFMHAYSPKNSQVLKDKLAFTSRRIIISGGSKEQGMTLGCLSELVGNGDITLGSYGNSLVLFADSFEKMKQSVKECVSSLNAKGFLANAATFSMENYFFAKHCSFITLPFIFDVTSNEGHHHHHH,soluble
8,MSLTARVIALDLDGTLLTPHKTLLPSSLDALSRAKEAGFQLIIVTGRHHVAIHPFYQALALETPAICCNGTYLYDYQAKTVLDADPMPVDKALQLIDLLDEHQIHGLMYVDDAMLYEHPTGHVVRTSRWAQTLPPEQRPTFAQVSSLAQAARDVNAVWKFALTDEDIPKLQRFGQHVEQALGLECEWSWHDQVDIARKGNSKGKRLTQWIEAQGGSMKNVIAFGDNYNDISMLEAAGTGVAMGNADEAVKARADVVIGDNTTDSIAKFIYTHLLEGHHHHHH,soluble
9,MAKIGFIGFGSMASLIATKIIETEVATPEEIILYSNSKNEHFNQFYTKYPTAELADNEAEIFTKADHSFVCKLPLAVLPLMKDCAAVLTPDRHVVSIAAGVSTSDIIEITPGLQVSKLIPSLTTAVNVGTTLIAHAETVNQTNTSWLETTFEHFGHVMTIREENMDIASDLTSSSPGIIAAIFEQFVEAALRRSSLSDAEVFQMINFALAGTSKLLVEEDYTFSGLIQRVATKDGTTAEGVELSKAQLPNFFDELLDRTQNKYASSEKEIQAQKRELLSLEHHHHHH,soluble
10,MGSDKIHHHHHHMLEFTLNFNDYGLKMGILTKLELDYEIDDIEKFLQFFRTMCDRFEPLIIKLGSDSVRYKEAIKELETLAHNTAWAARRLNLEEVTDFCVFCEEMMAQANRFNGPASDEFTDWMLLMSDQFEKYCRSYENDDSVLAVFNPLIVNVPNIISK,not soluble
11,RMEMVEIGGIQQALYIRGQNADNPIILWVHGGPGNSMMPFLHLYQYEWENDFTVVNWDQRNVGKTYFANDPAAVLQTMSAERVLQDVHEVTAYLKQEFNKEKIILIGHSWGTVLGTMAVQTYPEDYSAYIGIAQTVNMVDNERVGYEKTLEMVKAAGKQKDIKALEAIAPYPPAKYGPSYLAALMTVRTYQSKYGLSINMDLGNIISILATPYYSLRELKNTAIFNPNAIDNQGDVLRFLVEEADIRNYGVDYQVPVYYIMGENDYNSPYLPAKKFFDEIVAPDKQIFFIPDADHLPFLSKKAEFDCVLLE,not soluble
12,AIAASALEQFVNNVRQLSAQGQMTQLCELINKSGELLAKNLSHLDTVLGALDIQEHSLGVLAVLFVKFSMPNIPDFETLFSQVQLFISTCNGEHIRYATDTFAGLCHQLTNALVERKQPLRGISILKQAIDKMQMNTNQLTSVHADLCQLCLLAKCFKPAVPFLELDMMDICKENGAYDAKHFLCYYYYGGMIYTGLKNFERALYFFEQAITTPAMAVSHIMLEAYKKYILVSLILHGKVQQLPKYTSQIVGRFIKPLSNAYHELAQIYATNNPAELRALVNKHSETFTRDNNSGLVKQCLSSLYKKNIQRLTKTFLTLSLQDMASRVQLSGPQEAEKYVLHMIEDGEIYASINQKDGMVCFHDNPEKYNNPAMLHKIDQEML,soluble
13,MLVWEELREKALNKIYHDKEIGYLDPDILGFLLAFYRNRNDVYTQSSCSGRITIVDAEMPWDRKNSTIIFKNHLRITEQDLEDVLSKNQVRRLWLIVQGPIIHIYAKNIETGWDILKIAREAGFKHSGILATNQKGVLVELRTGIRMVHLLRESNTERVDKDKIKTLVNVCNEVLARGKQKMNLLKDLLSSSSNNSMELGKNSKLKTPI,soluble
14,MDSFKVVLEGPAPWGFRLQGGKDFNVPLSISRLTPGGKAAQAGVAVGDWVLNIDGENAGSLTHIEAQNKIRACGERLSLGLSRAQPVQSKPQKVQTSDKQLLRQPVPDASKQRLMEDTEDWRPRPGTGQSRSFRILAHLTGTEFMQDPDEEFMKKSREKYVLELQSPRYTRLRDWHHQRSAHVLNVQS,soluble
15,MAAHELKEALETLKETGVRITPQRHAILEYLVNSMAHPTADDIYKALEGKFPNMSVATVYNNLRVFRESGLVKELTYGDASSRFDFVTSDHYHAICENCGKIVDFHYPGLDEVEQLAAHVTGFKVSHHRLEIYGVCQECSKKENH,soluble
16,MLDDVRLLANGLLQLGQSLREFVHKTKSQTNDIFQKLNIFDRSFYQLSVVTSEIKEEEEKLKGLSQPITVSIHQPEQRAKHTKEA,not soluble
17,MAKILVLYYSMYGHIETMAHAVAEGAKKVDGAEVIIKRVPETMPPEIFAKAGGKTQNAPVATPQELADYDAIIFGTPTRFGNMSGQMRTFLDQTGGLWASGSLYGKLGSVFSSTGTGGGQEQTITSTWTTLAHHGMVIVPIGYAAQELFDVSQVRGGTPYGATTIAGGDGSRQPSQEELSIARYQGEYVAGLAVKLNG,not soluble
18,LERRWRRRREAGAGAEAAAGSARPLGRQAAAARGSSPEAGAAAMAESIIIRVQSPDGVKRITATKRETAATFLKKVAKEFGFQNNGFSVYINRNKTGEITASSNKSLNLLKIKHGDLLFLFPSSLAGPSSEMETSVPPGFKVFGAPNVVEDEIDQYLSKQDGKIYRSRDPQLCRHGPLGKCVHCVPLEPFDEDYLNHLEPPVKHMSFHAYIRKLTGGADKGKFVALENISCKIKSGCEGHLPWPNGICTKCQPSAITLNRQKYRHVDNIMFENHTVADRFLDFWRKTGNQHFGYLYGRYTEHKDIPLGIRAEVAAIYEPPQIGTQNSLELLEDPKAEVVDEIAAKLGLRKVGWIFTDLVSEDTRKGTVRYSRNKDTYFLSSEECITAGDFQNKHPNMCRLSPDGHFGSKFVTAVATGGPDNQVHFEGYQVSNQCMALVRDECLLPCKDAPELGYAKESSSEQYVPDVFYKDVDKFGNEITQLARPLPVEYLIIDITTTFPKDPVYTFSISQNPFPIENRDVLGETQDFHSLATYLSQNTSSVFLDTISDFHLLLFLVTNEVMPLQDSISLLLEAVRTRNEELAQTWKRSEQWATIEQLCSEYPHPLPRHPVAGAGEQPTLHSSPLPVVPWIPHPAASWQVPSAMQRVETRPPCQARGRLR,soluble
19,NGMDEEQRQKRRRIEVALIEYRETLEEQGMKNPEEIERKVEINRKRLEVDYGLS,soluble
20,MRVRNIQGEDYVKIYSVLNDWWGGRDMAVMLPKLFFIHFQETSFIIEEEGETLGFLCGFFSQTHKEEAYVHFIGVNPKYRRRGIASTLYSYFFDVARANNRKVVKAITSPVNKKSIQFHREIGFQIEAGDDEIEGVSVHTNYDGNGGSRVLFLKNV,not soluble
